Measured values as given in patent US20220332804A1 (CSL INNOVATION, published 2022).

B1: RF16-214 (antibody, V domains shown)
VH: EVQLLESGGGLVQPGGSLRLSCAASGFTFSWYQMMWVRQAPGKGLEWVSRIYPSGGGTAYADSVKGRFTISRDNSKNTLYLQMNSLRAEDTAVYYCARDAGYGDNWGQGTLVTVSS
VL: QSALTQPPSVSVSPGQTASITCSGDKLGEKYASWYQQKAGQSPVMVIYQDRKRPSGIPERFSGSNSGNTATLTISGTQAMDEADYYCQAWDTRAVVFGGGTKLTVLG
B2: RF16-226 (antibody)
heavy: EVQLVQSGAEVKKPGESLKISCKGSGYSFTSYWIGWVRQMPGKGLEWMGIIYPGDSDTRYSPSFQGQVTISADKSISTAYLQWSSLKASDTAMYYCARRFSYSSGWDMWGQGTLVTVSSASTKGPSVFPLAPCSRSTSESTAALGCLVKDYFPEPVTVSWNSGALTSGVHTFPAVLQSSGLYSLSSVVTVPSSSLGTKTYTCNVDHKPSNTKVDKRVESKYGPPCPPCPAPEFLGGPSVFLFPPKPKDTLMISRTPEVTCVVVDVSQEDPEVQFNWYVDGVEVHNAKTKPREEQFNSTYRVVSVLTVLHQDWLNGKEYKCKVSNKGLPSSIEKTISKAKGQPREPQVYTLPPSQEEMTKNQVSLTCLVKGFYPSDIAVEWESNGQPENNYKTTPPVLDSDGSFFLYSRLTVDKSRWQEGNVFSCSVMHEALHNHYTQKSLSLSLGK
light: SYELTQPPSVSVSPGQTARITCSGDALTSKYVAWYQQKSGLAPLLVIYEDTRRPSGIPAKFSGSSSGSVATLTISGAHGDDEADYYCYSTDASGHQRVFGGGTKLTVLSQPKAAPSVTLFPPSSEELQANKATLVCLISDFYPGAVTVAWKADGSPVKAGVETTKPSKQSNNKYAASSYLSLTPEQWKSHRSYSCQVTHEGSTVEKTVAPTECS

Assays:
human complement C2 [1] = molecular target: T1, human complement C2 (human, UniProt P06681 21-752); assay: cell-based or functional assay
T1 sequence: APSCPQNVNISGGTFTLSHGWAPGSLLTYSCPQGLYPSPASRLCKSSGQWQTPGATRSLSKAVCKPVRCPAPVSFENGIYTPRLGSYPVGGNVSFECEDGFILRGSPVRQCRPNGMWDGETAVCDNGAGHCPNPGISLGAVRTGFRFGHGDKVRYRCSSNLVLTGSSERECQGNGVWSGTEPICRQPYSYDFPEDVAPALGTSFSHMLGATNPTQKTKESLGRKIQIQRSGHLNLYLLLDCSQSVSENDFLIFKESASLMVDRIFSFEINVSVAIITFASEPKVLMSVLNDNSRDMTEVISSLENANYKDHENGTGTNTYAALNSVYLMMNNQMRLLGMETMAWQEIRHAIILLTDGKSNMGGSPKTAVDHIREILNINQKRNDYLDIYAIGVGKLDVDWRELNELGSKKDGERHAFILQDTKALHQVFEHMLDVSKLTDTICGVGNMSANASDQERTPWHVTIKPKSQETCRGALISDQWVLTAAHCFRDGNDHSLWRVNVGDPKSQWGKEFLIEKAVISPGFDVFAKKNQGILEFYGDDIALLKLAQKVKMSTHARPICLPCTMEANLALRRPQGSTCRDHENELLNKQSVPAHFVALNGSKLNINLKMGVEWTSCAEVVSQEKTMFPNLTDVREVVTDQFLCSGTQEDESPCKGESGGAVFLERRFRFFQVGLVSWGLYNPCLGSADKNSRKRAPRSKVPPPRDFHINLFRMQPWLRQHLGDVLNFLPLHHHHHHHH

human complement C2 [2] = molecular target: T1, human complement C2; assay: SPR, mAb captured, C2 analyte, HBS-EP, pH 6.0
Description: (§1) Surface plasmon resonance (SPR, Biacore) was used for all binding affinity analyses. In brief, goat anti-human IgG was directly immobilised onto the carboxymethyl dextran surface of CM5 sensorchips to approximately 12,000 RU using standard NHS/EDC chemistry at pH 5. The immobilised antibody surface was pre-conditioned with ten injections of polyclonal human IgG (Privigen 60 s) prepared at 1 μg/mL. Ligands (anti-C2 mAbs) were captured at the beginning of each cycle as described below. An adjacent spot or flow cell in which only Polyclonal IgG was capture was used as a reference surface. The goat anti-human IgG Fc antibody surface was regenerate in 100 mM H3PO4, injected for 45 seconds at the end of each cycle. Experiments were performed at 37° C. and the flow rate of each experiment was kept constant at 30 μL/min.
(§2) The pH dependent anti-C2 antibodies and their germlined versions were tested for their affinity to C2 at pH 7.3 (neutral pH) and pH 6.0 (early endosome pH) using the SPR methods described above in HBS-EP buffer.

cynomolgus monkey C2 [3] = molecular target: T2, cynomolgus monkey C2 (cynomolgus monkey, UniProt G8F3W0 21-752); assay: SPR, mAb captured, cyno C2 analyte, pH 7.3
T2 construct: also called cyno C2
T2 sequence: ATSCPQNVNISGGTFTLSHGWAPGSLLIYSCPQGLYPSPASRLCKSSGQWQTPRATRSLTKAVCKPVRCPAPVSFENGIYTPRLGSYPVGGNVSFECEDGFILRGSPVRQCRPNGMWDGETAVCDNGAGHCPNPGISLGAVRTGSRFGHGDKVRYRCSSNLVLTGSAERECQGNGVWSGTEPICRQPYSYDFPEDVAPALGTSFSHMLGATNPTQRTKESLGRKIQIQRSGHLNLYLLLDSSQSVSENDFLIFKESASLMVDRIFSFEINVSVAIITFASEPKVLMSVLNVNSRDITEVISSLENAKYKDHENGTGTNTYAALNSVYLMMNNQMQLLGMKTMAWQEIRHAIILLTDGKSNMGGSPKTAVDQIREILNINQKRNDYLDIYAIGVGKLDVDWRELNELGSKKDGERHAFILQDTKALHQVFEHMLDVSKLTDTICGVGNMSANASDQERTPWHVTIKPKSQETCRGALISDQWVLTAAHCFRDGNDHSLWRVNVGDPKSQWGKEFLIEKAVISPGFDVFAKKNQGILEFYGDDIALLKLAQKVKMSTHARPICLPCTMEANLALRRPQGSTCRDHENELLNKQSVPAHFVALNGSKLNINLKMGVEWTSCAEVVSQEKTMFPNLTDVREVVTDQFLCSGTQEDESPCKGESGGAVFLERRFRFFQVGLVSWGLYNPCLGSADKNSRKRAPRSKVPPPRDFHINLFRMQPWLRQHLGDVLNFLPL
Description: as §1
(§3) In addition to human C2, the pH dependent anti-C2 antibodies were also tested for their ability to bind to C2 from other mammalian species using the SPR methods described above in order to identify suitable surrogate species for in vivo testing. The antibodies were tested for binding at neutral pH against C2 from cynomolgus monkeys, mice, dogs, rabbits, rats, pigs, and sheep.

cynomolgus monkey C2 [4] = molecular target: T2, cynomolgus monkey C2; assay: SPR, mAb captured, cyno C2 analyte, pH 6.0
Description: as §1, §3

mouse C2 = molecular target: T3, mouse C2 (mouse, UniProt P21180 19-760, limits assumed); assay: SPR, mAb captured, mouse C2 analyte, pH 7.3
T3 sequence (looked up): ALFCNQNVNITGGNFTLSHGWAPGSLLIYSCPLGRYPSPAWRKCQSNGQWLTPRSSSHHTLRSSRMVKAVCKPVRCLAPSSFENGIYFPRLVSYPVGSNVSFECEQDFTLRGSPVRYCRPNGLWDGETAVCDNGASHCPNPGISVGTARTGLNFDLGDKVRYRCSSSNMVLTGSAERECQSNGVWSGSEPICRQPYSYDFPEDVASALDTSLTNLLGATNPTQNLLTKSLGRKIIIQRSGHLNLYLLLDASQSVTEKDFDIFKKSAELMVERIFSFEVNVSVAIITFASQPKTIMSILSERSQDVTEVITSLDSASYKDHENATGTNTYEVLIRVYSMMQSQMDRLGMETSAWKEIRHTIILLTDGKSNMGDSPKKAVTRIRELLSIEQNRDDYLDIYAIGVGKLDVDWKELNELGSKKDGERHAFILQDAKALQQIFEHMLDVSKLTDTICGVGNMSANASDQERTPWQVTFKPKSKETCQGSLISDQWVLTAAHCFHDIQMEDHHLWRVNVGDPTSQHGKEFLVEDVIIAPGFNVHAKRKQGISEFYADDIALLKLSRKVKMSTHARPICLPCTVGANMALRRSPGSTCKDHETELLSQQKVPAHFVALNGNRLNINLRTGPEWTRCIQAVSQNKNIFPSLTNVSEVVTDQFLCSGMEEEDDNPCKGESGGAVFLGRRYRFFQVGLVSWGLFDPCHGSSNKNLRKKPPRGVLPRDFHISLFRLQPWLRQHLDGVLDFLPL
Description: as §1, §3

human complement C2 [5] = molecular target: T1, human complement C2; assay: SPR, mAb captured, C2 analyte, HBS-EP, pH 7.3
Description: as §1, §2

human complement C2 [6] = molecular target: T1, human complement C2; assay: cell-based or functional assay; remark: listed apart in the source
cynomolgus monkey C2 [7] = molecular target: T2, cynomolgus monkey C2; assay: cell-based or functional assay
cynomolgus monkey C2 [8] = molecular target: T2, cynomolgus monkey C2; assay: cell-based or functional assay; remark: listed apart in the source
human complement C2 [9] = molecular target: T1, human complement C2; assay: SPR, mAb captured, C2 analyte, MHAs buffer, pH 6.0, steady state
Description: as §1
(§4) This buffer contains ammonium sulfate instead of sodium chloride.

human complement C2 [10] = molecular target: T1, human complement C2; assay: SPR, mAb captured, C2 analyte, MHAs buffer, pH 5.8, steady state
Description: as §1, §4

Row | Binder | IC50, inhibition of human classical complement pathway (Wieslab assay) (human complement C2 [1]) [nM] | IC50, inhibition of human lectin complement pathway (Wieslab assay) (human complement C2 [1]) [nM] | Kd (human complement C2 [2]) [nM] | Kd (cynomolgus monkey C2 [3]) [nM] | Kd (cynomolgus monkey C2 [4]) [nM] | Kd (mouse C2) [nM] | Kd (human complement C2 [5]) [nM] | IC50, inhibition of human classical pathway (hemolysis assay) (human complement C2 [6]) [nM] | IC50, inhibition of cyno classical pathway (hemolysis assay) (cynomolgus monkey C2 [7]) [nM] | IC50, inhibition of cynomolgus classical complement pathway (Wieslab assay) (cynomolgus monkey C2 [8]) [nM] | IC50, inhibition of cynomolgus lectin complement pathway (Wieslab assay) (cynomolgus monkey C2 [8]) [nM] | Kd (human complement C2 [9]) [nM] | Kd (human complement C2 [10]) [nM] | IC50, inhibition of cyno classical pathway (hemolysis assay), mean of three experiments (cynomolgus monkey C2 [7]) [nM]
1 | B1 | 18.6 | 7.69 | 148 | 46.8 | 137 | 885 | 31 | 241 | 630 | 134 | 362 | 2170 | 4670 | –
2 | B2 | 12.5 | 5.6 | 114 | 5.1 | 141 | 160 | 11.6 | 284 | – | 18.8 | 140 | 2230 | 5510 | 124
